# Measured values published in PMC3136475.
# Experiments:
# [1] = target: S453P C-terminal peptide (CTP), His6-tagged, released from the chain by trypsin cleavage of S453P proaerolysin (Aeromonas hydrophila); experiment: pull-down; proaerolysin processed with trypsin agarose beads at pH 8, incubated with His-bind resin preloaded with nickel (held by the His6 tag of the CTP), 4°C, 30 min, extensively washed; SDS-PAGE and Coomassie staining
# [2] = target: S453P C-terminal peptide (CTP), His6-tagged, released from the chain by trypsin cleavage of S453P proaerolysin (Aeromonas hydrophila); experiment: SPR; His-tagged proaerolysin bound to nickel charged NTA sensor chip via the His tag at the C-terminus of the CTP; trypsin added and release of the mature toxin followed; apparent Koff, by the authors only comparative
substance,measurement,setting,value
aerolysin (mature toxin obtained by trypsin cleavage of proaerolysin) (from UniProt P09167 24-445) (natural protein),percent of the total aerolysin in the unbound fraction (released from the bead-bound CTP),[1],40%
same,koff,[2],0.026 s⁻¹
